Results taken from US9415135B2, “Methods and compositions for stabilizing the myocardium” (The Regents of the University of California, priority 2002, dated 2016).
pIC50: −log10 of the molar value.

Legend:
MMP-3 = MMP-3 (Homo sapiens, UniProt P08254); conditions: MMP-13 to MMP-3; cited from earlier work
MMP-1 = target: T1, MMP-1 (Homo sapiens, UniProt P03956); conditions: MMP-13 to MMP-1; cited from earlier work
T1 sequence (P03956 100-469): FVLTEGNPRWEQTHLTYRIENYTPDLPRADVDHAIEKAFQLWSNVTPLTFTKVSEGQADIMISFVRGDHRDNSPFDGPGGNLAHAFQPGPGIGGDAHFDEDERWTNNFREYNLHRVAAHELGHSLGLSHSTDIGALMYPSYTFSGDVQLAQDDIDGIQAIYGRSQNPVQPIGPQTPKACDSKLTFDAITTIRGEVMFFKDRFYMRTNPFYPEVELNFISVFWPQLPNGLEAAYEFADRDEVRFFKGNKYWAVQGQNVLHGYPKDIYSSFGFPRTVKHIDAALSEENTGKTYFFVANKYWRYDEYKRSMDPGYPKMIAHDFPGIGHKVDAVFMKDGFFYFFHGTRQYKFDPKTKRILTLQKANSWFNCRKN

MMP-9 = MMP-9 (Homo sapiens, UniProt P14780); conditions: MMP-13 to MMP-9; cited from earlier work
Chain of MMP-9 (P14780 94-707, species assumed): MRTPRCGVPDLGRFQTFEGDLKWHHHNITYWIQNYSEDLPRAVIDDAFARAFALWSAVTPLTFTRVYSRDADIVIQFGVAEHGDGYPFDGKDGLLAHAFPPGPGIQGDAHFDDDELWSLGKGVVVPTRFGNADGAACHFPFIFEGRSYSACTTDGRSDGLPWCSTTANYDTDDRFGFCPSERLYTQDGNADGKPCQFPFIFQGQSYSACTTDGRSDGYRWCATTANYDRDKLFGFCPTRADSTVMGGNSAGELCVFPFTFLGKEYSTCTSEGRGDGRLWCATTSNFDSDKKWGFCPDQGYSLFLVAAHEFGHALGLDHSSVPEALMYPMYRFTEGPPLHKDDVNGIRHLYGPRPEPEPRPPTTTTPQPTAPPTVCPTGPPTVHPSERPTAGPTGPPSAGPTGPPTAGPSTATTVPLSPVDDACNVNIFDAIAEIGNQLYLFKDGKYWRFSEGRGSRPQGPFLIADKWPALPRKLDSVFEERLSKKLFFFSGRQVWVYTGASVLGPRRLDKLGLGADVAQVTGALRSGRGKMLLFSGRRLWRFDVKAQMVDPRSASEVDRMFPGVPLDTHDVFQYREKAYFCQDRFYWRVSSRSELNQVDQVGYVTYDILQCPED

[1] = tested on: neural stem cells (NSCs) from adult hippocampus; test: NSC adhesion and proliferation on peptide-modified IPNs (CyQUANT); format: cell-based, rat
Protocol: Neural stem cells were isolated from the hippocampi of adult female Fischer 344 rats as previously described (Lai, K., et al., Nat Neurosci, 6(1):21-7 (2003)). Cells at (200-10,000 cells/well) were seeded onto peptide-modified IPNs and laminin-modified culture wells and incubated (37° C., 5% CO2) in serum-free media consisting of DMEM/Hams F-12 medium with N−2 supplement. These media conditions were supplemented with various soluble factors to modulate cell behavior: 20 ng·ml^−1 basic fibroblast growth factor (bFGF) for cell proliferation or 1 μM retinoic acid with 5 μM forskolin for neuronal differentiation. Wells were rinsed every 48 hrs with fresh media.
NSCs isolated from the adult hippocampus were seeded onto bsp-RGD(15)-modified IPNs at various cell densities over four orders of magnitude. […] 18(2):337-45 (2002)). Such spheres provide less precise control over the cellular microenvironment, due in part to spatial gradients in signaling and nutrients and internal necrosis.
For quantitative assays of proliferation, the NSCs were seeded at 1000 cells per well on various surfaces and grown for 3-6 days, and cell number was determined using a fluorescent dye that binds to nucleic acids, CyQUANT (Molecular Probes, Eugene, Oreg.). Briefly, cells grown on a particular surface for a fixed duration were washed once with phosphate buffer saline and lysed in the manufacturer's buffer with dye. Next, the fluorescent intensity of resulting solution was measured. […] Any increase in cell number on the negative control bsp-RGE(15)-modified IPNs reflected growth of weakly adherent neurospheres (FIG. 2d-e). About 10 pmol·cm^−2 bsp-RGD(15) was needed to support proliferation of NSCs, corresponding to ˜10^6 ligands per cell for the 10 μm diameter cells.

[2] = tested on: neural stem cells (NSCs) from adult hippocampus; test: NSC phenotype and differentiation on peptide-modified IPNs (qRT-PCR, immunofluorescent staining); format: cell-based, rat; conditions: 1 μM retinoic acid with 5 μM forskolin
Protocol: Neural stem cells were isolated from the hippocampi of adult female Fischer 344 rats as previously described (Lai, K., et al., Nat Neurosci, 6(1):21-7 (2003)). Cells at (200-10,000 cells/well) were seeded onto peptide-modified IPNs and laminin-modified culture wells and incubated (37° C., 5% CO2) in serum-free media consisting of DMEM/Hams F-12 medium with N-2 supplement. These media conditions were supplemented with various soluble factors to modulate cell behavior: 20 ng·ml^-1 basic fibroblast growth factor (bFGF) for cell proliferation or 1 μM retinoic acid with 5 μM forskolin for neuronal differentiation. Wells were rinsed every 48 hrs with fresh media. […] To assay phenotype, two methods were used: quantitative real time PCR (qRT-PCR) and immunofluorescent staining. […] Quantitative real time PCR was used as a complementary technique to accurately quantify specific cDNA concentrations in various cDNA samples from cells grown on IPNs and laminin (using a Bio-Rad Laboratories iCycler). GFAP expression levels were quantified as a marker for astrocytic differentiation of the progenitor cells. β-Tubulin-III was used as a marker for neurons. […] The plasmids were linearized by restriction digest and quantified by absorbance, and tenfold serial dilutions from 1 ng/μL to 10^-9 ng/μL were prepared to generate a standard curve. […]

αIIBβ3 integrin = αIIBβ3 integrin (Homo sapiens, UniProt P05106+P08514); conditions: low affinity; cited from earlier work
Chain of αIIBβ3 integrin (P08514 32-887 limits assumed): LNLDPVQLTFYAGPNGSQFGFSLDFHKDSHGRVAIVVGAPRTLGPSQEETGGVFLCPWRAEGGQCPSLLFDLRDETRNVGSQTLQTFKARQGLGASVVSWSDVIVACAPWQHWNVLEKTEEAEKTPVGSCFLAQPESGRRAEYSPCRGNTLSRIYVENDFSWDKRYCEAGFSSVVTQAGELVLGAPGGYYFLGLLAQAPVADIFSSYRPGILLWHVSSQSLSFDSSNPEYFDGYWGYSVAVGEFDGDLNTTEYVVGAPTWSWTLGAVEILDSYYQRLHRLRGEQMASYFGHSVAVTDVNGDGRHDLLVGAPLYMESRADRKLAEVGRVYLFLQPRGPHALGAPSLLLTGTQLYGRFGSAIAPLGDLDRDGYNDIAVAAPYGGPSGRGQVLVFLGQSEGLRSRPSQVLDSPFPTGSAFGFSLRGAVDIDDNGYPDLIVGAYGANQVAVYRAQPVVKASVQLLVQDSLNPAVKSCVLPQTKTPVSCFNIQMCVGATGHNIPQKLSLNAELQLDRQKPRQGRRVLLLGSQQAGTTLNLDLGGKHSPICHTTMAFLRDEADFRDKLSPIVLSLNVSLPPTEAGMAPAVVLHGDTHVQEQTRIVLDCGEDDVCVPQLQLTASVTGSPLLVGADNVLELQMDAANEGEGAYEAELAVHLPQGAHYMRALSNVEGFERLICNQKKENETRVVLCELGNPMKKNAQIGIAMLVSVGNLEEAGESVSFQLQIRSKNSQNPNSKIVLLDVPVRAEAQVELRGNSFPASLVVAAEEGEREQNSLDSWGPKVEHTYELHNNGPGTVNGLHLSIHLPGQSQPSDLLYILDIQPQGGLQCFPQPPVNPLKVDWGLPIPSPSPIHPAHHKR
Chain of αIIBβ3 integrin (P08514 891-1039 partner limits assumed): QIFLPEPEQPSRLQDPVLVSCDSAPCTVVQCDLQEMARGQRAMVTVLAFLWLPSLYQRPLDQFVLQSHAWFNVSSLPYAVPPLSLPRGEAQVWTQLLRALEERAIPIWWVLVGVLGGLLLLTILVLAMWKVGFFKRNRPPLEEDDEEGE
Chain of αIIBβ3 integrin (P05106 27-788): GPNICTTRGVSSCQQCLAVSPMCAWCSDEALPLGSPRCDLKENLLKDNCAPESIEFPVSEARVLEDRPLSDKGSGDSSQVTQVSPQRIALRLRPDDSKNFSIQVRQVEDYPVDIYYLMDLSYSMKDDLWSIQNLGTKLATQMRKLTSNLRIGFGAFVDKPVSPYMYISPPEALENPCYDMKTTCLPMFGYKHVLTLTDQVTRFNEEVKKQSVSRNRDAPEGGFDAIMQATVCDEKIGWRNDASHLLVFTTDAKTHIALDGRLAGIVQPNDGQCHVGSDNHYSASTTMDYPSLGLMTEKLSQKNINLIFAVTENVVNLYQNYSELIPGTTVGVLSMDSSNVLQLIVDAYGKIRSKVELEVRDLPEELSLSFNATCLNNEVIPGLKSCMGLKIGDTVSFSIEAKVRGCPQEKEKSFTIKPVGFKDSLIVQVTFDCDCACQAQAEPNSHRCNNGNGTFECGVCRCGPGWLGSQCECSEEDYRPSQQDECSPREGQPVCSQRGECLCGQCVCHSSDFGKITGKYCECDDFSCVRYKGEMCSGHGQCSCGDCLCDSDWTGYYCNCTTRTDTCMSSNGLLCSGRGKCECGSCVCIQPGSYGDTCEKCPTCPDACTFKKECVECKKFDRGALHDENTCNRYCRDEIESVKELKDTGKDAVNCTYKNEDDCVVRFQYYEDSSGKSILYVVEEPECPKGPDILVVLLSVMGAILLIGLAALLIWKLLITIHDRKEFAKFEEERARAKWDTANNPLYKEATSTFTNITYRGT

αvβ5 integrin = αvβ5 integrin (Homo sapiens, UniProt P06756+P18084); conditions: low affinity; cited from earlier work
Chain of αvβ5 integrin (P06756 31-889 limits assumed): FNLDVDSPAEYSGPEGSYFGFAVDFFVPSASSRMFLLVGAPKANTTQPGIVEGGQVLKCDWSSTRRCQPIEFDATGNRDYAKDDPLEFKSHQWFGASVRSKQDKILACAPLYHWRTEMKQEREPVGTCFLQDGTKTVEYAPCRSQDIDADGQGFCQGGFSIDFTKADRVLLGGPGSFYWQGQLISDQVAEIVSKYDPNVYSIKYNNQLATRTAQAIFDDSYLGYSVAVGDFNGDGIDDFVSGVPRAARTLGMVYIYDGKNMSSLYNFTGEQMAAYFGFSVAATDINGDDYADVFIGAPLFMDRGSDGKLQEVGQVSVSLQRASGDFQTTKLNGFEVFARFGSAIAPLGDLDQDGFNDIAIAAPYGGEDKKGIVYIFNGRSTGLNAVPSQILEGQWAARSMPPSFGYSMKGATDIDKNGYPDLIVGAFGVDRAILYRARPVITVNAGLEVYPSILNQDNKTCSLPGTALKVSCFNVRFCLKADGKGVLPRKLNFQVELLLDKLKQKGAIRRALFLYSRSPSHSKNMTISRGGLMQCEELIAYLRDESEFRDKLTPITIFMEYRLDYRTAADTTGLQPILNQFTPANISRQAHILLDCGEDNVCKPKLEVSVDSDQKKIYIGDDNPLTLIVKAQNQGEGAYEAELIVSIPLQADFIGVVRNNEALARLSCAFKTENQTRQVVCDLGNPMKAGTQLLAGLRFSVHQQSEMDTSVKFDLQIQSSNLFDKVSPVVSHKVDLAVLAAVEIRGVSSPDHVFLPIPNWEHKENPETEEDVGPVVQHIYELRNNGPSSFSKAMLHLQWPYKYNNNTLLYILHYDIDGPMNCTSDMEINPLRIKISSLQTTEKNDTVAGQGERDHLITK
Chain of αvβ5 integrin (P06756 891-1048 partner limits assumed): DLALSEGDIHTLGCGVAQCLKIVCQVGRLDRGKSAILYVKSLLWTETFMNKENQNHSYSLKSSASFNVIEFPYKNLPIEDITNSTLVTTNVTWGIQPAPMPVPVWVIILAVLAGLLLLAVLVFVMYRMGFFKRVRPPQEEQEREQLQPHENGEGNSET
Chain of αvβ5 integrin (P18084 24-799): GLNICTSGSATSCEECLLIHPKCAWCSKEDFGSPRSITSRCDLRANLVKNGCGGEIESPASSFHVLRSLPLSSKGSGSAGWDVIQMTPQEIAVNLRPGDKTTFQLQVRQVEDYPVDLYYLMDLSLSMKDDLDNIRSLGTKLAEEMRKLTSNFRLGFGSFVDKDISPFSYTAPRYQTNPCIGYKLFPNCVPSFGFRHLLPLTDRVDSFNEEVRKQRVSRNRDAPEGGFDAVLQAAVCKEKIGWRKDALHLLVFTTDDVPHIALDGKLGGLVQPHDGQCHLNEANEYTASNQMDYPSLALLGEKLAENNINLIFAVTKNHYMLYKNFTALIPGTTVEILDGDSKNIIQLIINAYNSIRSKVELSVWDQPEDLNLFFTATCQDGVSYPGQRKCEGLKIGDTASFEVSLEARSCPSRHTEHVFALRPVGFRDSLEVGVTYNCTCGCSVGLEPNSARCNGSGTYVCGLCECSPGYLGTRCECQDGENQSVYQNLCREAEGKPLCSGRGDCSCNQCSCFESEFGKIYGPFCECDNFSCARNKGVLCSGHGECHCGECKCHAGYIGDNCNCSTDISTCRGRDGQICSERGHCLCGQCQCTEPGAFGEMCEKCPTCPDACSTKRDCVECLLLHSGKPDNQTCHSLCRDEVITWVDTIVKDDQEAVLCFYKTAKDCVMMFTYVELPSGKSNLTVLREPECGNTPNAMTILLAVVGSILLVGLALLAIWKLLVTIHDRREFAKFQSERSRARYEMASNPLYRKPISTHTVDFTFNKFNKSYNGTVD

αvβ3 integrin = αvβ3 integrin (Homo sapiens, UniProt P05106+P06756); conditions: high affinity; read-out: IC50, αvβ3 integrin binding; cited from earlier work
Chain of αvβ3 integrin (P06756 31-889 limits assumed): as the sequence (P06756 31-889 limits assumed) above
Chain of αvβ3 integrin (P06756 891-1048 partner limits assumed): as the sequence (P06756 891-1048 partner limits assumed) above
Chain of αvβ3 integrin (P05106 27-788): as the sequence (P05106 27-788) above

Chain of MMP-3 (P08254 100-477, species assumed): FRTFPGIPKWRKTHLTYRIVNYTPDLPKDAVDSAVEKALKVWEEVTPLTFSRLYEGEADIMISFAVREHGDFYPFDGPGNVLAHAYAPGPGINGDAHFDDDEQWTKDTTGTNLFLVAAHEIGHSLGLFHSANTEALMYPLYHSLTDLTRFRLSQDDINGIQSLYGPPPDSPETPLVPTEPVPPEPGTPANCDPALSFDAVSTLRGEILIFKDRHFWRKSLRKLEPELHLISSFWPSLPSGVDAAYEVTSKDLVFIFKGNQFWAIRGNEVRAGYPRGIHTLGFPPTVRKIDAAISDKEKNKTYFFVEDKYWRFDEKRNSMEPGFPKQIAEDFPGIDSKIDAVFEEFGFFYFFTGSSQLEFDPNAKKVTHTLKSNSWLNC

Row | Substance | Selectivity (kcat/Km ratio for MMP-13 to MMP-x), MMP-3 (MMP-3) | Selectivity (kcat/Km ratio for MMP-13 to MMP-x), MMP-1 (MMP-1) | Selectivity (kcat/Km ratio for MMP-13 to MMP-x), MMP-9 (MMP-9) | also measured
1 | C2-12P3A: literature MMP-13 peptide substrate, P4-P3' G A L G L S L (SEQ ID NO: 26) (GALGLSL; test peptide substrate) [Sample C2-12P3A] | 14 | 8.3 | 4.6 | 
2 | C2-22: literature MMP-13 peptide substrate, P4-P4' G P R P F N Y L (SEQ ID NO: 24) (GPRPFNYL; test peptide substrate) [Sample C2-22] | 7.9 | 180 | 21 | 
3 | C3-16: literature MMP-13 peptide substrate, P4-P4' G P K G V Y S L (SEQ ID NO: 27) (GPKGVYSL; test peptide substrate) [Sample C3-16] | 3600 | 5500 | 2.2 | 
4 | C5-27: literature MMP-13 peptide substrate, P4-P4' G P F G F K S L (SEQ ID NO: 25) (GPFGFKSL; test peptide substrate) [Sample C5-27] | 250 | 2900 | 4.8 | 
5 | CGGNGEPRGDTYRAY (15-mer bone sialopeptide sequence; bsp-RGD(15)) |  |  |  | bsp-RGD(15) surface density needed to support proliferation of NSCs ([1]; grafted on IPN): About 10 pmol·cm^−2
6 | CGGNGEPRGETYRAY (bone sialopeptide sequence; bsp-RGE(15)) |  |  |  | NSC adhesion / attachment ([1]; proliferating or differentiating media conditions): did not support attachment
7 | CP: literature MMP-13 peptide substrate, P4-P4' G P L G M R G L (SEQ ID NO: 23) (GPLGMRGL; test peptide substrate) | 1300 | 820 | 11 | 
8 | CSRARKQAASIKVAVSADR (lam-IKVAV(19) peptide) |  |  |  | NSC differentiation into neural lineages [2]: did not enhance either cell proliferation or differentiation; NSC proliferation ([1]; proliferating media (bFGF)): did not enhance either cell proliferation or differentiation
9 | H-Glu[cyclo (Arg-Gly-Asp-D-Phe-Lys)]2 [bicyclic RGD peptide reported by Janssen et al] |  |  |  | pIC50 (αIIBβ3 integrin): 8.00; pIC50 (αvβ5 integrin): 8.00; pIC50 (αvβ3 integrin): 9.05
